Experimental data from publication PMC11633101 (2024).

Target: BVDV E2 protein with 6×his tag, purified from 293F cells (bovine viral diarrhea virus (BVDV), UniProt P19711 693-1066)
Assay: SPR

B1: bovine CD46 protein (MedChemExpress) (receptor)
chain: CDDPPRFVSMKPQGTLKPSYSPGEQIVYECHLGFQPVTPGQVLALVCQDNNTWSSLQEGCKKRRCPTLADPTNGQVILVNGSTEFGSEVHYVCNNGYYLLGTNISYCEVSSGTGVNWSDNPPTCEKILCQPPPEIQNGKYTNSHKDVFEYNEVVTYSCDPSNGPDEYSLVGESKLTCIGNGEWSSQPPQCKVVKCVYPAIEHGTIVSGFGPKYYYKATVVLKCNEGFNLYGNSVVVCGENSTWEPELPKCIKGHPPRPTDASPPNGAEG
Q: How did the Kd turn out when B1 was run?
A: 75.1 nM
